Experimental data: paper PMC7327492

Key:
Recombinant B56α = Recombinant B56α (UniProt Q15172); experiment: ITC; purified full-length recombinant B56α and synthetic ADAM17 peptides
YFP-FoxO3 L-C = experiment: co-IP; YFP-FoxO3 constructs transfected into HeLa cells, purified using YFP resin, PP2A-B56 binding determined by Western blotting
YFP-FoxO3 I-C = experiment: as above
YFP-FoxO3 H-C = experiment: as above

Sequence of PP2A-B56 (endogenous holoenzyme of HeLa cells) (Q15172 whole entry): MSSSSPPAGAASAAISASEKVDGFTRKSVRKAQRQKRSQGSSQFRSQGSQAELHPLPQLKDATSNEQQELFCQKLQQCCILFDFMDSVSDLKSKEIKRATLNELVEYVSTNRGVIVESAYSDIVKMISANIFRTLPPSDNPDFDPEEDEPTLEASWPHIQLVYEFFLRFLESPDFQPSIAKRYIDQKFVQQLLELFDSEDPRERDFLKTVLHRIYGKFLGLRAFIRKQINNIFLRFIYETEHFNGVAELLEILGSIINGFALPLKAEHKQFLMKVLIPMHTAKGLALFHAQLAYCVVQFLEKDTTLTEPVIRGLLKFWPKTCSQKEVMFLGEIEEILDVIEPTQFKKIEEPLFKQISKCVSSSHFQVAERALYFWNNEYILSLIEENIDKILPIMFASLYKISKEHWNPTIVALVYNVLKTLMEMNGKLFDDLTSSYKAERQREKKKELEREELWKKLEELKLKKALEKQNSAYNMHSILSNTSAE
Sequence of PP2A-B56 (endogenous holoenzyme of HeLa cells) (P30153 whole entry): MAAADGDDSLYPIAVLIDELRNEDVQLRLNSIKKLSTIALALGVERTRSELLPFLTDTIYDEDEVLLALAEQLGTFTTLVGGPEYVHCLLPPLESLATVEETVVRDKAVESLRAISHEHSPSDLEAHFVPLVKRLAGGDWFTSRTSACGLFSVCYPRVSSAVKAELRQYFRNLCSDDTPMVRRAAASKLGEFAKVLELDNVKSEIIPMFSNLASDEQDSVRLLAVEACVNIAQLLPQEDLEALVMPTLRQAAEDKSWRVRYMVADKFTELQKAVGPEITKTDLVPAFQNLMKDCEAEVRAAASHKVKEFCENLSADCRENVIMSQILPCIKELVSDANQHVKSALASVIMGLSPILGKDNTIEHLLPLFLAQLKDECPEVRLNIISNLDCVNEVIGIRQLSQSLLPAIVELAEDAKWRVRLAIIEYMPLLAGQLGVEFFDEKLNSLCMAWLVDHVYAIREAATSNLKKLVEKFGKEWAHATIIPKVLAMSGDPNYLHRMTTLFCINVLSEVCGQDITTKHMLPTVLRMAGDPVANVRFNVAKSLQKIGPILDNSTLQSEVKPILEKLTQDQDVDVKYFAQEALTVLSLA
Sequence of PP2A-B56 (endogenous holoenzyme of HeLa cells) (P67775 whole entry): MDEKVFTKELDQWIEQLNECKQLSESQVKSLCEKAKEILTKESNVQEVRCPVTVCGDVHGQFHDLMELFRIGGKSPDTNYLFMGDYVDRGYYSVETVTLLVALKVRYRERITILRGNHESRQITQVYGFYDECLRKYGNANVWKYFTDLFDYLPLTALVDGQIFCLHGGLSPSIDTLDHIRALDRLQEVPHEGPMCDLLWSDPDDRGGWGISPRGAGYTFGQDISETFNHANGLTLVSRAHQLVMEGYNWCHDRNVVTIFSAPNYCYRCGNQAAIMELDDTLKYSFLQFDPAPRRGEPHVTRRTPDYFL

Row | Kd (Recombinant B56α) | fold PP2A-B56 bound against wt FoxO3 (YFP-FoxO3 L-C) | fold PP2A-B56 bound against wt FoxO3 (YFP-FoxO3 I-C) | fold PP2A-B56 bound against wt FoxO3 (YFP-FoxO3 H-C) | Substance
1 | 900 nM | – | – | – | synthetic ADAM17 peptide engineered for optimal binding (LDTIQEEE)
2 | – | 0.5 fold | 4 fold | 10 fold | PP2A-B56 (endogenous holoenzyme of HeLa cells) (from UniProt Q15172 1-486; P30153 1-589; P67775 1-309) (complex)
